Where a chain is given by its changes, count along the chain named.
B1: TM2 R104EK141E (other)
chain: MSDVQSSLTGTWYNELNSKMELTANKDGTLTGKYLSKVGDVYVPYPLSGRYNLQPPAGQGVALGWAVSWENSKIHSATTWSGQFFSESSPVILTQWLLSSSTAEGDVWESTLVGNDSFTKTAPTEQQIAHAQLHCRAPRLE
notes: TM2 double mutant; also called R104-K141
B2: TM2 K141E (other)
chain: B1 chain with E104R
notes: TM2 mutant
B3: TM2 R104E (other)
chain: B1 chain with E141K
notes: TM2 mutant
B4: TM2 K26A (other)
chain: B1 chain with K26A, E104R, E141K
notes: TM2 mutant
B5: TM2 K73Q (other)
chain: B1 chain with K73Q, E104R, E141K
notes: TM2 mutant
B6: tamavidin 2 (wild type) (other)
chain: B1 chain with E104R, E141K
notes: also called TM2; TM2WT

Target: fibronectin
Assay: summary of Example 1-10: ELISA on fibronectin-immobilized plate
Experimental: (§1) The fibronectin-binding of each low-pI TM2 was compared using a microplate to which fibronectin was immobilized. The concentration of fibronectin was adjusted to 50 μg/mL with a fixation solution exclusive for a New ELISA plate, and the fibronectin solution (50 μL) was added to each New ELISA plate (Sumitomo Bakelite), followed by shaking at 37° C. for 4 hours for immobilization. Then, the plate was washed with 0.1% Triton X-100-containing PBS (300 μL) three times and was then dried naturally.
(§2) TM2, K26A, K73Q, R104E, K141E, and R104EK141E mutants (50 μL each) were each added to the corresponding well of the plate and left at room temperature for 1 hour. The plate was washed with 300 μL/well of PBST (PBS buffer containing 0.1% Tween 20) three times. Then, biotinylated HRP diluted 5000 times with PBST containing 0.5% BSA was added at 50 μL/well and allowed to react with the mutant at room temperature for 1 hour. After washing with 300 μL/well of PBST three times, 50 μL/well of 1-Step Ultra TMB-ELISA solution was added to each well for color development.

| Binder | amount of fibronectin binding relative to wild type TM2 |
| --- | --- |
| B1 | 10 to 20 % of wild type TM2 |
| B2 | 10 to 20 % of wild type TM2 |

Target: fibronectin
Assay: ELISA on fibronectin-immobilized plate, biotinylated HRP detection
Experimental: as §1, §2

| Binder | Binding of fibronectin (A450) |
| --- | --- |
| B1 | 0.11 A450 |
| B3 | 0.7 A450 |
| B4 | 0.85 A450 |
| B5 | 0.98 A450 |
| B6 | 1.34 A450 |
| B2 | 0.21 A450 |

— US20110263824A1 (JAPAN TOBACCO, published 2011)
